Laboratory results taken from publication doi:10.1101/2020.03.22.001966.
Each block holds one substance with its values, some of them ahead of it.

Legend:
Test in all cases: SEC
[1] = target: Acinetobacter baumannii BigR (Acinetobacter baumannii)
[2] = target: C9S SqrR, reduced (Rhodobacter capsulatus)
[3] = target: C9S/C41S SqrR (Rhodobacter capsulatus)
[4] = target: C9S/C107S SqrR (Rhodobacter capsulatus)
[5] = target: wild-type SqrR (sulfide quinone reductase repressor), reduced (Rhodobacter capsulatus)

Substance: C9S/C107S SqrR (natural protein)
stoichiometry N [4]: 2

Substance: wild-type SqrR (sulfide quinone reductase repressor), reduced (natural protein)
stoichiometry N [5]: 2

Results, then the substance that gave them:

stoichiometry N [1]: 2
Substance: Acinetobacter baumannii BigR (natural protein)

stoichiometry N [2]: 2
Substance: C9S SqrR, reduced (natural protein)

stoichiometry N [3]: 2
Substance: C9S/C41S SqrR (natural protein)
